The supplement of paper PMC12042874
± gives the uncertainty stated by the source.

Experiment: amyloid nucleation score (Sup35N fusion, yeast selection) (log enrichment); library NNK3; higher = more nucleation; inactive = no reads after selection
In short: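 Three technical output replicates were used for random libraries. Psi-negative yeast expressing peptides of 20 random codons fused to Sup35N were induced with 100 μM copper sulfate for 24 hours and grown 7 days at 30°C on medium lacking adenine and uracil, and input and output plasmid inserts were Illumina-sequenced, excluding sequences with under 100 input reads. The nucleation score is the DiMSum log enrichment of output over input reads, centred on the mode score of non-aggregating sequences.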

Row | Substance | amyloid nucleation score
1 | MSVACFSLASVFQWGFFASC | inactive
2 | LENNIRSDSTFSTWTHDQCQ | inactive
3 | QWSGDDTT | 0.368 ± 0.22
4 | SFRSNVGFEVFLIATELRFC | inactive
5 | SFKQIIDRFTSSFIVIFGLR | inactive
6 | KPWIFMESRDM | inactive
7 | LNYVLS | inactive
8 | YNDCNIN | inactive
9 | NFVPVYSLSRRAVLGHTGWC | inactive
10 | GAGPGLITMSNSN | inactive
11 | ILFRYFISGMVVWGDNMENE | inactive
12 | AIRGMNAERNR | inactive
13 | WIYRLWQGDIVPRVMTAHTA | -0.735 ± 1.8
14 | YYFLDRGGITSTIFRLLCPF | inactive
15 | NGVFWGRKSRSYEFWSFYFQ | -0.052 ± 0.62
16 | IRGSHGRWYSTHNCLTCDME | inactive
17 | SIQKSWDASGSLIYS | inactive
18 | FMGGIFAVFTRILVHSIWYS | inactive
19 | HCSQLFESTYKRMSHISRDL | -0.56 ± 0.73
20 | LRYASTSSFLVFQRDTLANE | inactive
21 | YRYHIMVMKAVIDTNSRKGW | inactive
22 | LMRNRFFNPVSGTFTASIGQ | -0.302 ± 1.1
23 | STWLSNWYY | -0.759 ± 1.1

Row | Substance | amyloid nucleation score
24 | GFKDLWYCDGF | inactive
25 | CRNESLACSKMSPSQRRSYT | inactive
26 | AYFLKEVNYMVKIYNLECRV | inactive
27 | YLLNVVYGKEVHMASDFLYG | inactive
28 | NLIFRFPLAIKWSLFSLDCL | inactive
29 | VCEGMKMAALRYREERC | inactive
30 | HSLVVPIPSPILRVLKE | inactive
31 | LVFSRCWFSMTVEYISYSVD | inactive
32 | WNAYVHTNNV | inactive
33 | TMSVMPLTVQVLVGRISDGQ | 1.71 ± 0.071
34 | GYRYTVHGIFEGVLWLTSAG | inactive
35 | GISPQC | inactive
36 | AYIIN | -0.363 ± 0.82
37 | VEVRVYTFF | 2.23 ± 0.074
38 | VMTAGWYLFLLSGSEGYVVS | -0.325 ± 1.2
39 | YRCSRNVENYGPSKRGYYTE | inactive
40 | FLSFTSRNLTYFCDCRFSLI | inactive
41 | SISRLCVRMRIYKRTVAIYL | inactive
42 | GKFFMVSRYCESSSLRFESM | 1.15 ± 0.17
43 | RFSTQAENGVSIIFNLVCFN | 2.8 ± 0.082
44 | KVNGYSLMLLDPVGGLTNT | inactive
45 | FLTVIGLYNLSDGPCCK | 1.79 ± 0.06
46 | DNQFICLFVVEIGIVYDSYA | inactive

Row | Substance | amyloid nucleation score
47 | NNFNISLRVRRSFKKCFFVR | 1.85 ± 0.077
48 | QYLTRVHSPEDGTMA | 0.125 ± 0.75
49 | QKEDFIVSLWYRVRLFDRNS | inactive
50 | MHSGFNRFSTYCRKVGGSYR | inactive
51 | YSIISSYTFEFSKFAVLALL | inactive
52 | SYNSVRW | inactive
53 | SLSLWESRCQITFPLVIKVE | -0.017 ± 0.7
54 | SFKFMYNSFRSNGDIFSFNR | 2.35 ± 0.073
55 | GTIRVYIKTNDATVIGEHHA | 1.21 ± 0.13
56 | RYGSNTSLVANCAGPRPGLV | inactive
57 | VVDDIWRPIDL | inactive
58 | LFLDVSIYVCPEGILRKS | 2.65 ± 0.084
59 | IKAPRFYAPFLLIVSQWVST | inactive
60 | NLCVYWYSWGRSWGDFVTGY | 0.269 ± 0.36
61 | DDGFYMSVGIVSWFC | 0.843 ± 0.13
62 | ELGMQSNGSSNDRLERRRIR | inactive
63 | KMCLLFVREFRMLFACVWVT | inactive
64 | TNSFAYNWLNAW | inactive
65 | DYISPYCS | inactive
66 | LRKPYLEY | inactive
67 | YTDIVSAIEEVF | inactive
68 | KRYCSLMML | inactive
69 | VCSCAHGHTGSEESRSVGSA | inactive

Row | Substance | amyloid nucleation score
70 | KSCLCLSPRGFGTDSAAVKW | 0.966 ± 0.12
71 | ASTQRMYMSLLVDGWVTIRL | inactive
72 | GSVNLSVKSW | inactive
73 | RSLYMLVNLMYCGTEVRFIC | inactive
74 | MLITSMLCIHV | inactive
75 | NAIGEISSVYSCTL | inactive
76 | LYDVGYKGQMVDGGTVCCER | -0.257 ± 0.8
77 | HFLMFMRIIWVLRCPQVESP | inactive
78 | WIFCLVAIFRTEVDMTNYFT | 0.355 ± 0.69
79 | SYISQEFYDFCFKPYLGSLY | inactive
80 | DPKTSYNADLAIGSCLLIDF | inactive
81 | EGSSSLYCSELRFV | inactive
82 | SRTFVRECKWGFVCRYKVWV | inactive
83 | LSFIISCNYTINNNMWV | 2.91 ± 0.077
84 | RGIKWWILDFWVDMHTCMFK | inactive
85 | SCNFGANYNLKMIFIYVPWV | 1.75 ± 0.08
86 | RLFSFAIFHENTMLGNCCTM | 2.44 ± 0.063
87 | EFPASNLSMLGWN | inactive
88 | VLWPADFGCPARVQESGSSQ | -0.387 ± 1.5
89 | YIILCSIFSYWENMGHI | 2.78 ± 0.08
90 | AKCMSNYYERCVLNTERREL | inactive
91 | SRYRAEIDARYNFLRGFNAC | -0.449 ± 0.8
92 | QQVVSLEGRRTKVTLTYQGS | 1.04 ± 0.11

Row | Substance | amyloid nucleation score
93 | TCDIRCCTASPLYNRVM | 0.129 ± 0.47
94 | MEYRHCSFNRSRTRTLYRMN | inactive
95 | SQCYCVYAGVVT | 0.034 ± 0.51
96 | ANTGMWLRMFPCWAPWDRVE | inactive
97 | FCLMHRRWMVVCACIYRWLK | inactive
98 | VFYIVMMLVRAPIFFNGVPT | inactive
99 | LFRLYKYLQCPSQGWCPRH | inactive
100 | NWFTMSNFMFYRTFCFIYSS | inactive
101 | NTRKHFVSWCAHPDEDSSFM | inactive
102 | RRVFHWYKYCV | inactive
103 | DNLTVTFRCLHAYLGGLDFD | inactive
104 | QNGCRLMTCC | inactive
105 | WGLLV | inactive
106 | GVDDSLLKMRETCSRFGLTV | inactive
107 | YFLSN | inactive
108 | VFVPTKYHYMYVLGQWDIFV | inactive
109 | CFMLSDGHTCFVLMSGWFSS | inactive
110 | VPPFTLTSVVYLSFCVCGGD | 0.701 ± 0.13
111 | TSYNFTQLTPILVKLMQMNL | inactive
112 | GTSICDVKFAPLYSE | inactive
113 | FCGGVAFMMVNVERVRTRRE | 1.39 ± 0.15
114 | NLDLSGGESASWRNFSFFLK | inactive
115 | IRYLYLV | inactive

Row | Substance | amyloid nucleation score
116 | YLWFWQFNTRLGVRRIFWTR | inactive
117 | FIRVFYSCIYVDKVLCEGRL | 1.5 ± 0.11
118 | SWEFPTDKSYMSCREPENPM | inactive
119 | STTHEYDI | inactive
120 | NDFSKGLCMWTFNWNDTYDQ | 1.75 ± 0.077
121 | FIVVQGIAPCGFTS | inactive
122 | FMLRFPLPPSKIHVRYMPTC | inactive
123 | HAGVHWFERGSFHWMLFINY | inactive
124 | TYEVRTCWDWQRMGSMYLAR | inactive
125 | DMWKFTRLLFFCDSKRCSAD | inactive
126 | TRNLPTN | inactive
127 | LIFGVIPCQPR | inactive
128 | EFLGFCFPIAGYFLKDEKIG | inactive
129 | CMSRYVDSYFNLAYRDRFLW | 0.451 ± 0.47
130 | LTNLCES | inactive
131 | QNPTWC | inactive
132 | NTPFFGTGLSQTIAVKHLQM | inactive
133 | YFISWSFHGFVTSPGFWSGC | 1.41 ± 0.15
134 | VFFYAASD | inactive
135 | EVSFDNLRGWH | inactive
136 | IFPFFVSL | inactive
137 | GVHVVYCVRFSEGIVYTSGF | 0.906 ± 0.2
138 | FAISSILSMDAPGLDQIDRF | inactive

Row | Substance | amyloid nucleation score
139 | MACRSNGLVGPEHTYVPT | inactive
140 | GRAHQFLISSFLSPGGPLMR | inactive
141 | LLVYAVENPGLVWNSRHGLF | -1.37 ± 2.5
142 | SLSVSYDVLWRIFSGNNGNW | 1.25 ± 0.083
143 | VEGRMLSYLHVIYMYSGWRK | inactive
144 | ASYRAVNVDTGRIWPEFQLG | inactive
145 | LGRCDVIVKEFVTIIA | inactive
146 | AEIKMLLLQIHDS | 0.078 ± 0.23
147 | WCGRETSRQWA | 0.033 ± 0.39
148 | RFGDVHDCVVVSNGNLRNES | inactive
149 | ISRLLPPWNNRHIFSFVYLS | inactive
150 | KYDCRGEMLFQ | inactive
151 | EVVGVYRERMSSFLLQGVLL | -0.042 ± 0.98
152 | AYALALCLRE | inactive
153 | KKRGHEWFVIIKSARGASKR | inactive
154 | IDWLKRVVEVTSVEGAYCWW | inactive
155 | FRFWPFSPICNWY | inactive
156 | LQRRYFGSRSLGTFARMFQH | inactive
157 | WNIFSYNNSLVWNPEGNESG | 0.836 ± 0.27
158 | RFATGCDYLLRRW | inactive
159 | QYLPGRTVFCMQIYDVQLYP | inactive
